Data: CN108948202A (BOAOXIN BIOTECHNOLOGY NANJING CO LTD, dated 2018)

Tests used:
[1] = target: T1, 重组人PD1带his标签的蛋白 (Sino biological inc., cat#10377-H08H) (human, UniProt Q15116 25-167); test: ELISA, hybridoma supernatant on coated human PD1-his
T1 construct: Detection antigen for serum titres and hybridoma screening; also called 人PD1-his蛋白抗原; PD1-his; not shown: his tag

[2] = target: T2, 生物素标记人PD1-Fc蛋白 (human, UniProt Q15116 25-167, limits assumed, biotin-labelled (site not stated)); test: capture ELISA: antibody captured by anti-mouse IgG Fc, 60 nM biotinylated human PD1-Fc
T2 construct: also called PD1Fc biotin; 人PD1抗原; not shown: Fc part
T2 sequence (Q15116 25-167 limits assumed): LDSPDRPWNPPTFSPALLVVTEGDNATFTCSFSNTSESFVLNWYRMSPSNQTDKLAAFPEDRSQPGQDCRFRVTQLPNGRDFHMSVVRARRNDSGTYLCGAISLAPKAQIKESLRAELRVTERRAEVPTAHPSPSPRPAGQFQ

T1 sequence (Q15116 25-167 limits assumed): as above

binding result [1]: binds | binding result [2]: binds
B1: D2G3 抗人PD1小鼠单克隆抗体 (antibody, V domains shown)
VH: QEQLKQSGPGLVAPSQTLSITCTVSGFSLESYGVDWVRQSPGKGLEWLGVIWGSGSTSYNSGLKSRLSISKDNSKKQVFLEMKSLQTDDTAMYYCAIDGGFASWGQGTLVTVSA
VL: DIVMTQAAPSVPVTPGESVSISCRSSKSLLHSNGNTYLYWFLQRPGQSPQRLIYYMSNLASGVPDRFSGRGSGTDFTLRISRVEAEDVGVYYCMQSLEYPYTFGGGTKLEIK
notes: Tested as a mouse monoclonal antibody from a hybridoma (supernatant or small-scale purified); also called D2G3抗体; 本发明的抗人PD1单克隆抗体
